Measured values reported in patent publication US11618906B2, “Hydroxylation techniques” (HYPHA DISCOVERY LTD., priority 2018, dated 2023).
Numbering of substitutions follows the chain as printed. Names may count otherwise.

B1: aluC09M33: cytochrome P450 aluC09 mutant T291I; amino acid sequence SEQ ID NO: 44 (protein, listed as Amycolatopsis lurida)
chain: MTDVEETTATLPLARKCPFSPPPEYERLRRESPVSRVGLPSGQTAWALTRLEDIREMLSSPHFSSDRQSPSFPLMVARQIRREDKPFRPSLIAMDPPEHSRARRDVVGEFTVKRMKALQPRIQQIVDEHLDALLAGPKPADLVQALSLPVPSLVICELLGVPYSDHEFFQSCSSRMLSREVTAEERMTAFEQLENYLDELVTKKEANATEDDLLGRQILKQRETGEADHGELVGLAFLLLIAGHETTANMISLGTVTLLENPDQLAKIKADPGKTLAAIEELLRVFTIAEIATSRFATADVEIGGTLIRAGEGVVGLSNAGNHDPDGFENPDTFDIERGARHHVAFGFGVHQCLGQNLARLELQIVFDTLFRRVPGLRIAVPVDELPFKHDSTIYGLHALPVTW
B2: aluC09M35: cytochrome P450 aluC09 mutant T291P; amino acid sequence SEQ ID NO: 52 (protein, listed as Amycolatopsis lurida)
chain: B1 chain with I291P
B3: aluC09M39: cytochrome P450 aluC09 mutant T291K; amino acid sequence SEQ ID NO: 68 (protein, listed as Amycolatopsis lurida)
chain: B1 chain with I291K

Assays:
Assay type in all cases: biochemical
[1] = Hydroxylation of diclofenac catalysed by cytochrome P450 aluC09 and mutants (UPLC-PDA-MS); settings: for 4′,5-dihydroxy-diclofenac 1.38 mins / 4′-hydroxy-diclofenac (1) 1.62 mins / 5-hydroxy-diclofenac (2) 1.58 mins / Diclofenac (Substrate) 1.81 mins: % by UV peak area at 275 nm, 0.125 mg/ml substrate, 27° C., 16-20 hours; for regioselectivity of hydroxylation (product ratio 4′-hydroxydiclofenac : 5-hydroxydiclofenac) / Hydroxylated Ratio hydroxy 1:hydroxy 2: diclofenac; for Hydroxylated Ratio hydroxy 1:hydroxy 2: ratio of UV peak areas at 275nm
Protocol: (§1) Lyophilised material of mutants of CYP450aluC09, ferredoxinaluF03 and ferredoxin reductaseSCF15A was made as described in examples 3 and 4 and suspended in water (0.5 mL per vial) and biocatalysis was performed at 27° C. in the following conditions: 50 mM potassium phosphate pH 7.4, 5 mM MgCl2, 0.125 mg/ml substrate compound such as diclofenac (Sigma-Aldrich, UK), Aceclofenac (Tokyo Chemical Industry UK Ltd, UK), Indomethacin (Sigma-Aldrich, UK), Flufenamic acid (Sigma-Aldrich, UK), Napropamide (Sigma-Aldrich, UK), celecoxib (LC Laboratories, USA), valsartan (Tokyo Chemical Industry UK Ltd, UK), ruxolitinib (LC Laboratories, USA), 4-pyrrolidylacetophenone (Sigma-Aldrich, UK), tofacitinib (LC Laboratories, USA), bosentan (CarboSynth Ltd, UK), buparvaquone (MedChemtronica, Sweden), BIRB796 (Stratech Scientific Limited, UK), epothilone B (LC Laboratories, USA), ritonavir (Tokyo Chemical Industry UK Ltd, UK) or tivantinib (MedChemtronica, Sweden), P450AluC09 (concentration as in Table 8), 5 mM G6P, 1 mM NADP, 2 UN/ml G6PDH in a final volume of 100 μL. After 16-20 hours at 200 rpm (5 cm orbital shaker, Kuhner AG, Switzerland), reactions were extracted with an equal volume of acetonitrile, centrifuged to remove precipitated proteins and conversion assessed by UPLC-MS analysis.
(§2) UPLC data was obtained as follows:
(§3) Column: Acquity UPLC BEH Shield RP18 1.7 μm 2.1 mm i.d. 50 mm length
(§4) Solvents: H2O, B: Acetonitrile, both with 0.1% Formic acid
(§5) Detector: Waters Acquity UPLC PDA (UV-Vis detection) and Waters Acquity UPLC QDA (MS)
Illustrative results for the hydroxylation of diclofenac by CYP450aluC09 and selected T291x mutants are summarised below in Table 3 with representative chromatograms resented in FIG. 3a-c; retention times: diclofenac 1.85-1.88 minutes, 5-hydroxydiclofenac 1.60-1.63 minutes, 4′-hydroxydiclofenac 1.65-1.68 minutes, 4′,5-dihydroxydiclofenac 1.40-1.42 minutes. The chromatographic retention times and mass spectra coincided with those of authentic samples.

[2] = Metabolism of bosentan by P450 aluC09 and mutants; settings: percent of substrate being converted; 0.125 mg/ml, 27° C., 16-20 hours; [CYP] per enzyme as in Table 8
Protocol: as §1
(§6) However, of particular note when considering P450 concentration are the results for mutants M12, M20 and M34, as well as the deleterious impact on the range of substrate utility in mutants M39 and M40.

[3] = Metabolism of epothilone B by P450 aluC09 and mutants; settings: percent of substrate being converted; 0.125 mg/ml, 27° C., 16-20 hours; [CYP] per enzyme as in Table 8
Protocol: as §1, §6

[4] = Metabolism of celecoxib by P450 aluC09 and mutants; settings: percent of substrate being converted; 0.125 mg/ml, 27° C., 16-20 hours; [CYP] per enzyme as in Table 8
Protocol: as §1, §6

[5] = Hydroxylation of flufenamic acid catalysed by cytochrome P450 aluC09 and mutants; settings: for Flufenamic Acid (Substrate) 1.93 mins / Hydroxy-Flufenamic Acid (1) 1.69 mins / Hydroxy-Flufenamic Acid (2) 1.65 mins: % by UV peak area at 275 nm, 0.125 mg/ml substrate, 27° C., 16-20 hours; for Hydroxylated Ratio 1:2: flufenamic acid, ratio of UV peak areas at 275 nm
Protocol: as §1, §2, §3, §4, §5
Flufenamic acid elutes at 1.93 minutes, hydroxy-flufenamic acid 1 elutes at 1.68 minutes and hydroxy-flufenamic acid 2 elutes at 1.65 minutes.

[6] = Metabolism of BIRB796 by P450 aluC09 and mutants; settings: percent of substrate being converted; 0.125 mg/ml, 27° C., 16-20 hours; [CYP] per enzyme as in Table 8
Protocol: as §1, §6

[7] = Hydroxylation of aceclofenac catalysed by cytochrome P450 aluC09 and mutants; settings: for Aceclofenac (Substrate) (1.80 mins) / Dihydroxy-Aceclofenac (1.42 mins) / Hydroxy-Aceclofenac (1) (1.64 min) / Hydroxy-Aceclofenac (2) (1.60 min): % by UV peak area at 275 nm, 0.125 mg/ml substrate, 27° C., 16-20 hours; for Hydroxylated Ratio 2:1: aceclofenac, ratio of UV peak areas at 275 nm
Protocol: as §1, §2, §3, §4, §5
Chromatograms are provided in FIGS. 5a-c; aceclofenac elutes at 1.80 minutes, hydroxy-aceclofenac acid 1 elutes at 1.64 minutes, hydroxy-aceclofenac acid 2 elutes at 1.60 minutes and dihydroxy-aceclofenac elutes at 1.42 minutes.

[8] = Metabolism of ruxolitinib by P450 aluC09 and mutants; settings: percent of substrate being converted; 0.125 mg/ml, 27° C., 16-20 hours; [CYP] per enzyme as in Table 8
Protocol: as §1, §6

[9] = Metabolism of 4-pyrrolidylacetophenone by P450 aluC09 and mutants; settings: percent of substrate being converted; 0.125 mg/ml, 27° C., 16-20 hours; [CYP] per enzyme as in Table 8
Protocol: as §1, §6

[10] = Metabolism of tivantinib by P450 aluC09 and mutants; settings: percent of substrate being converted; 0.125 mg/ml, 27° C., 16-20 hours; [CYP] per enzyme as in Table 8
Protocol: as §1, §6

[11] = Metabolism of tofacitinib by P450 aluC09 and mutants; settings: percent of substrate being converted; 0.125 mg/ml, 27° C., 16-20 hours; [CYP] per enzyme as in Table 8
Protocol: as §1, §6

[12] = O-demethylation of indomethacin catalysed by cytochrome P450 aluC09 and mutants; settings: % by UV peak area at 275 nm; 0.125 mg/ml substrate, 27° C., 16-20 hours
Protocol: as §1, §2, §3, §4, §5

[13] = Hydroxylation / de-N-ethylation of napropamide catalysed by cytochrome P450 aluC09 and mutants; settings: for Desethyl Napropamide (1.62 min) / Desethyl-hydroxy-Napropamide (1.41 min) / Hydroxy-Napropamide (1) (1.53 min) / Hydroxy-Napropamide (2), (1.52 min) / M-2Da (unidentified) (1.89 min) / Napropamide (substrate): % by UV peak area at 275 nm, 0.125 mg/ml substrate, 27° C., 16-20 hours; for Hydroxylated Ratio 2:1: napropamide, ratio of UV peak areas
Protocol: as §1, §2, §3, §4, §5
Napropamide elutes at 1.76 minutes, unidentified metabolite (−2 Da) elutes at 1.90 minutes, desethyl-napropamide elutes at 1.62 minutes, hydroxy-napropamide 1 elutes at 1.53 minutes and hydroxy-napropamide 2 elutes at 1.52 minutes and the desethyl-hydroxy-napropamide product elutes at 1.41 minutes.

[14] = Metabolism of buparvaquone by P450 aluC09 and mutants; settings: percent of substrate being converted; 0.125 mg/ml, 27° C., 16-20 hours; [CYP] per enzyme as in Table 8
Protocol: as §1, §6

[15] = Metabolism of valsartan by P450 aluC09 and mutants; settings: percent of substrate being converted; 0.125 mg/ml, 27° C., 16-20 hours; [CYP] per enzyme as in Table 8
Protocol: as §1, §6

[16] = Metabolism of ritonavir by P450 aluC09 and mutants; settings: percent of substrate being converted; 0.125 mg/ml, 27° C., 16-20 hours; [CYP] per enzyme as in Table 8
Protocol: as §1, §6

Molecule	4′,5-dihydroxy-diclofenac 1.38 mins [1] [%]	4′-hydroxy-diclofenac (1) 1.62 mins [1] [%]	5-hydroxy-diclofenac (2) 1.58 mins [1] [%]	Diclofenac (Substrate) 1.81 mins [1] [%]	Hydroxylated Ratio hydroxy 1:hydroxy 2 [1]	% conversions (avg) Bosentan [2] [%]	% conversions (avg) Epothilone B [3] [%]	% conversions (avg) Celecoxib [4] [%]	Flufenamic Acid (Substrate) 1.93 mins [5] [%]	Hydroxy-Flufenamic Acid (1) 1.69 mins [5] [%]	Hydroxy-Flufenamic Acid (2) 1.65 mins [5] [%]	Hydroxylated Ratio 1:2 [5]	% conversions (avg) BIRB796 [6] [%]	Aceclofenac (Substrate) (1.80 mins) [7] [%]	Dihydroxy-Aceclofenac (1.42 mins) [7] [%]	Hydroxy-Aceclofenac (1) (1.64 min) [7] [%]	Hydroxy-Aceclofenac (2) (1.60 min) [7] [%]	Hydroxylated Ratio 2:1 [7]	% conversions (avg) Ruxolitinib [8] [%]	% conversions (avg) 4-pyrrolidylacetophenone [9] [%]	further results
B1	1.1	29.5	6.7	63.3	4.4	98.9	21.8	2.8	98.3	1.0	0.6	1.6	13.5	30.8	8.8	41.7	18.6	0.4	30.6	7.9	regioselectivity of hydroxylation (product ratio 4′-hydroxydiclofenac : 5-hydroxydiclofenac) [1]: over four-fold; regioselectivity of hydroxylation of aceclofenac compared to the wild-type enzyme [7]: reversal of the regioselectivity; % conversions (avg) Tivantinib [10]: 29.6%; % conversions (avg) Tofacitinib [11]: 1.1%; Indomethacin (1.74 mins) [12]: 92.8%; O-demethyl-Indomethacin (1.52 mins) [12]: 7.2%; Desethyl Napropamide (1.62 min) [13]: 30.6%; Desethyl-hydroxy-Napropamide (1.41 min) [13]: 5.7%; Hydroxy-Napropamide (1) (1.53 min) [13]: 1.8%; Hydroxy-Napropamide (2), (1.52 min) [13]: 4.1%; M-2Da (unidentified) (1.89 min) [13]: 5.1%; Napropamide (substrate) [13]: 56.0%; Hydroxylated Ratio 2:1 [13]: 2.3; % conversions (avg) Buparvaquone [14]: 8.2%; % conversions (avg) Valsartan [15]: 12.4%; % conversions (avg) Ritonavir [16]: 41.3%
B2	0.9	41.3	9.9	48.2	4.2	98.4	20.6	1.5	95.8	2.7	1.5	1.9	4.6	21.8	26.6	12.2	39.4	3.2	34.1	3.3	regioselectivity of hydroxylation (product ratio 4′-hydroxydiclofenac : 5-hydroxydiclofenac) [1]: over four-fold; % conversions (avg) Tivantinib [10]: 35.7%; % conversions (avg) Tofacitinib [11]: 1.1%; Indomethacin (1.74 mins) [12]: 94.1%; O-demethyl-Indomethacin (1.52 mins) [12]: 5.9%; Desethyl Napropamide (1.62 min) [13]: 36.6%; Desethyl-hydroxy-Napropamide (1.41 min) [13]: 4.8%; Hydroxy-Napropamide (1) (1.53 min) [13]: 1.2%; Hydroxy-Napropamide (2), (1.52 min) [13]: 3.6%; M-2Da (unidentified) (1.89 min) [13]: 5.3%; Napropamide (substrate) [13]: 51.0%; Hydroxylated Ratio 2:1 [13]: 3.0; % conversions (avg) Buparvaquone [14]: 7.1%; % conversions (avg) Valsartan [15]: 21.8%; % conversions (avg) Ritonavir [16]: 37.6%
B3	2.1	42.8	14.6	41.4	2.9	85.1	1.6	0	94.4	5.1	0.5	4.9	0	63.7	4.4	18.6	13.3	0.7	5.3	1.5	production of hydroxyl-flufenamic acid 2 ([5]; peak at 1.65 minutes, compared to wild-type): no detectable production; % conversions (avg) Tivantinib [10]: 7.2%; % conversions (avg) Tofacitinib [11]: 0%; Indomethacin (1.74 mins) [12]: 93.0%; O-demethyl-Indomethacin (1.52 mins) [12]: 7.0%; Desethyl Napropamide (1.62 min) [13]: 16.3%; Desethyl-hydroxy-Napropamide (1.41 min) [13]: 0.7%; Hydroxy-Napropamide (1) (1.53 min) [13]: 1.4%; Hydroxy-Napropamide (2), (1.52 min) [13]: 1.6%; M-2Da (unidentified) (1.89 min) [13]: 2.3%; Napropamide (substrate) [13]: 78.2%; Hydroxylated Ratio 2:1 [13]: 1.2; % conversions (avg) Buparvaquone [14]: 0%; % conversions (avg) Valsartan [15]: 7.8%; % conversions (avg) Ritonavir [16]: 39.2%
